In PMC7954794, “Protein context shapes the specificity of SH3 domain-mediated interactions in vivo” (Nature Communications, 2021) one finds screen value data, which are given here for ten variants.

First the molecules themselves.
B1: S. cerevisiae Abp1 (full length; SH3 domain 535-592 mutated) / Hua2 (parent)
chain 1: MALEPIDYTTHSREIDAEYLKIVRGSDPDTTWLIISPNAKKEYEPESTGSSFHDFLQLFDETKVQYGLARVSPPGSDVEKIIIIGWCPDSAPLKTRASFAANFAAVANNLFKGYHVQVTARDEDDLDENELLMKISNAAGARYSIQTSSKQQGKASTPPVKKSFTPSKSPAPVSKKEPVKTPSPAPAAKISSRVNDNNDDDDWNEPELKERDFDQAPLKPNQSSYKPIGKIDLQKVIAEEKAKEDPRLVQKPTAAGSKIDPSSDIANLKNESKLKRDSEFNSFLGTTKPPSMTESSLKNDDDKVIKGFRNEKSPAQLWAERKAKQNSGNAETKAEAPKPEVPEDEPEGEPDVKDLKSKFEGLAASEKEEEEMENKFAPPPKKSEPTIISPKPFSKPQEPVKAEEAEQPKTDYKKIGNPLPGMHIEADNEEEPEENDDDWDDDEDEAAQPPLPSRNVASGAPVQKEEPEQEEIAPSLPSRNSIPAPKQEEAPEQAPEEEIEEEAEEAAPQLPSRSSAAPPPPPRRATPEKKPKENPWATAEYDYDAAEDNELTFVENDKIINIEFVDDDWWLGELEKDGSKGLFPSNYVSLGN
chain 2: MQQTKFGKMYLDHDSVVEYSEDEIVEADRITLGYKKRLSMIENQMRHLLEDFSLDVQQIEPILADLQKYYDAFLQLLQKRNKSLQCKRSTHQPVPSPMNSQTSTNAKVNLSGKLMKFQLNSVQKFDEENILRILQNKIEFEHYFQIDKGKKQKVLLLAVYQCLNGPTRLHKVLNIEGIIHNNSIRTILGKQVSSSKWTVFLYDVKLVLLAHRQDVPNLETSKMIVRYGDLFPCALYFKDHTAY

Variants of B1 are the subject of this experiment. The experiment can be described thus: DHFR protein-fragment complementation in yeast (Abp1-DHFR F[1,2] x partner-DHFR F[3]), deep mutational scanning, second methotrexate selection vs reference. Conditions: with Hua2; S. cerevisiae, DHFR-PCA selection in liquid with methotrexate at 30 C, two 72 h selections (the score uses the second); reference = the pre-selection culture; not an affinity; scale: DMS score: mean over two replicates of log2(f_test/f_ref + 0.5)/ln 2, minus the synonymous-codon median.
chain 1 MALEPIDYTTHSREIDAEYLKIVRGSDPDTTWLIISPNAKKEYEPESTGSSFHDFLQLFDETKVQYGLARVSPPGSDVEKIIIIGWCPDSAPLKTRASFAANFAAVANNLFKGYHVQVTARDEDDLDENELLMKISNAAGARYSIQTSSKQQGKASTPPVKKSFTPSKSPAPVSKKEPVKTPSPAPAAKISSRVNDNNDDDDWNEPELKERDFDQAPLKPNQSSYKPIGKIDLQKVIAEEKAKEDPRLVQKPTAAGSKIDPSSDIANLKNESKLKRDSEFNSFLGTTKPPSMTESSLKNDDDKVIKGFRNEKSPAQLWAERKAKQNSGNAETKAEAPKPEVPEDEPEGEPDVKDLKSKFEGLAASEKEEEEMENKFAPPPKKSEPTIISPKPFSKPQEPVKAEEAEQPKTDYKKIGNPLPGMHIEADNEEEPEENDDDWDDDEDEAAQPPLPSRNVASGAPVQKEEPEQEEIAPSLPSRNSIPAPKQEEAPEQAPEEEIEEEAEEAAPQLPSRSSAAPPPPPRRATPEKKPKENPWVTAEYDYDAAEDNELTFVENDKIINIEFVDDDWWLGELEKDGSKGLFPSNYVSLGN [chain 1 A537V]: the screen value was -2.01.

With chain 1 MALEPIDYTTHSREIDAEYLKIVRGSDPDTTWLIISPNAKKEYEPESTGSSFHDFLQLFDETKVQYGLARVSPPGSDVEKIIIIGWCPDSAPLKTRASFAANFAAVANNLFKGYHVQVTARDEDDLDENELLMKISNAAGARYSIQTSSKQQGKASTPPVKKSFTPSKSPAPVSKKEPVKTPSPAPAAKISSRVNDNNDDDDWNEPELKERDFDQAPLKPNQSSYKPIGKIDLQKVIAEEKAKEDPRLVQKPTAAGSKIDPSSDIANLKNESKLKRDSEFNSFLGTTKPPSMTESSLKNDDDKVIKGFRNEKSPAQLWAERKAKQNSGNAETKAEAPKPEVPEDEPEGEPDVKDLKSKFEGLAASEKEEEEMENKFAPPPKKSEPTIISPKPFSKPQEPVKAEEAEQPKTDYKKIGNPLPGMHIEADNEEEPEENDDDWDDDEDEAAQPPLPSRNVASGAPVQKEEPEQEEIAPSLPSRNSIPAPKQEEAPEQAPEEEIEEEAEEAAPQLPSRSSAAPPPPPRRATPEKKPKENPWSTAEYDYDAAEDNELTFVENDKIINIEFVDDDWWLGELEKDGSKGLFPSNYVSLGN [chain 1 A537S], the screen value is -2.6.

For chain 1 MALEPIDYTTHSREIDAEYLKIVRGSDPDTTWLIISPNAKKEYEPESTGSSFHDFLQLFDETKVQYGLARVSPPGSDVEKIIIIGWCPDSAPLKTRASFAANFAAVANNLFKGYHVQVTARDEDDLDENELLMKISNAAGARYSIQTSSKQQGKASTPPVKKSFTPSKSPAPVSKKEPVKTPSPAPAAKISSRVNDNNDDDDWNEPELKERDFDQAPLKPNQSSYKPIGKIDLQKVIAEEKAKEDPRLVQKPTAAGSKIDPSSDIANLKNESKLKRDSEFNSFLGTTKPPSMTESSLKNDDDKVIKGFRNEKSPAQLWAERKAKQNSGNAETKAEAPKPEVPEDEPEGEPDVKDLKSKFEGLAASEKEEEEMENKFAPPPKKSEPTIISPKPFSKPQEPVKAEEAEQPKTDYKKIGNPLPGMHIEADNEEEPEENDDDWDDDEDEAAQPPLPSRNVASGAPVQKEEPEQEEIAPSLPSRNSIPAPKQEEAPEQAPEEEIEEEAEEAAPQLPSRSSAAPPPPPRRATPEKKPKENPWPTAEYDYDAAEDNELTFVENDKIINIEFVDDDWWLGELEKDGSKGLFPSNYVSLGN [chain 1 A537P], the screen value is -2.58.

Take chain 1 MALEPIDYTTHSREIDAEYLKIVRGSDPDTTWLIISPNAKKEYEPESTGSSFHDFLQLFDETKVQYGLARVSPPGSDVEKIIIIGWCPDSAPLKTRASFAANFAAVANNLFKGYHVQVTARDEDDLDENELLMKISNAAGARYSIQTSSKQQGKASTPPVKKSFTPSKSPAPVSKKEPVKTPSPAPAAKISSRVNDNNDDDDWNEPELKERDFDQAPLKPNQSSYKPIGKIDLQKVIAEEKAKEDPRLVQKPTAAGSKIDPSSDIANLKNESKLKRDSEFNSFLGTTKPPSMTESSLKNDDDKVIKGFRNEKSPAQLWAERKAKQNSGNAETKAEAPKPEVPEDEPEGEPDVKDLKSKFEGLAASEKEEEEMENKFAPPPKKSEPTIISPKPFSKPQEPVKAEEAEQPKTDYKKIGNPLPGMHIEADNEEEPEENDDDWDDDEDEAAQPPLPSRNVASGAPVQKEEPEQEEIAPSLPSRNSIPAPKQEEAPEQAPEEEIEEEAEEAAPQLPSRSSAAPPPPPRRATPEKKPKENPWFTAEYDYDAAEDNELTFVENDKIINIEFVDDDWWLGELEKDGSKGLFPSNYVSLGN [chain 1 A537F]: the screen value was -2.93.

In the case of chain 1 MALEPIDYTTHSREIDAEYLKIVRGSDPDTTWLIISPNAKKEYEPESTGSSFHDFLQLFDETKVQYGLARVSPPGSDVEKIIIIGWCPDSAPLKTRASFAANFAAVANNLFKGYHVQVTARDEDDLDENELLMKISNAAGARYSIQTSSKQQGKASTPPVKKSFTPSKSPAPVSKKEPVKTPSPAPAAKISSRVNDNNDDDDWNEPELKERDFDQAPLKPNQSSYKPIGKIDLQKVIAEEKAKEDPRLVQKPTAAGSKIDPSSDIANLKNESKLKRDSEFNSFLGTTKPPSMTESSLKNDDDKVIKGFRNEKSPAQLWAERKAKQNSGNAETKAEAPKPEVPEDEPEGEPDVKDLKSKFEGLAASEKEEEEMENKFAPPPKKSEPTIISPKPFSKPQEPVKAEEAEQPKTDYKKIGNPLPGMHIEADNEEEPEENDDDWDDDEDEAAQPPLPSRNVASGAPVQKEEPEQEEIAPSLPSRNSIPAPKQEEAPEQAPEEEIEEEAEEAAPQLPSRSSAAPPPPPRRATPEKKPKENPWTTAEYDYDAAEDNELTFVENDKIINIEFVDDDWWLGELEKDGSKGLFPSNYVSLGN [chain 1 A537T], the screen value was -1.87.

For chain 1 MALEPIDYTTHSREIDAEYLKIVRGSDPDTTWLIISPNAKKEYEPESTGSSFHDFLQLFDETKVQYGLARVSPPGSDVEKIIIIGWCPDSAPLKTRASFAANFAAVANNLFKGYHVQVTARDEDDLDENELLMKISNAAGARYSIQTSSKQQGKASTPPVKKSFTPSKSPAPVSKKEPVKTPSPAPAAKISSRVNDNNDDDDWNEPELKERDFDQAPLKPNQSSYKPIGKIDLQKVIAEEKAKEDPRLVQKPTAAGSKIDPSSDIANLKNESKLKRDSEFNSFLGTTKPPSMTESSLKNDDDKVIKGFRNEKSPAQLWAERKAKQNSGNAETKAEAPKPEVPEDEPEGEPDVKDLKSKFEGLAASEKEEEEMENKFAPPPKKSEPTIISPKPFSKPQEPVKAEEAEQPKTDYKKIGNPLPGMHIEADNEEEPEENDDDWDDDEDEAAQPPLPSRNVASGAPVQKEEPEQEEIAPSLPSRNSIPAPKQEEAPEQAPEEEIEEEAEEAAPQLPSRSSAAPPPPPRRATPEKKPKENPWDTAEYDYDAAEDNELTFVENDKIINIEFVDDDWWLGELEKDGSKGLFPSNYVSLGN [chain 1 A537D], the screen value is -2.14.

Consider chain 1 MALEPIDYTTHSREIDAEYLKIVRGSDPDTTWLIISPNAKKEYEPESTGSSFHDFLQLFDETKVQYGLARVSPPGSDVEKIIIIGWCPDSAPLKTRASFAANFAAVANNLFKGYHVQVTARDEDDLDENELLMKISNAAGARYSIQTSSKQQGKASTPPVKKSFTPSKSPAPVSKKEPVKTPSPAPAAKISSRVNDNNDDDDWNEPELKERDFDQAPLKPNQSSYKPIGKIDLQKVIAEEKAKEDPRLVQKPTAAGSKIDPSSDIANLKNESKLKRDSEFNSFLGTTKPPSMTESSLKNDDDKVIKGFRNEKSPAQLWAERKAKQNSGNAETKAEAPKPEVPEDEPEGEPDVKDLKSKFEGLAASEKEEEEMENKFAPPPKKSEPTIISPKPFSKPQEPVKAEEAEQPKTDYKKIGNPLPGMHIEADNEEEPEENDDDWDDDEDEAAQPPLPSRNVASGAPVQKEEPEQEEIAPSLPSRNSIPAPKQEEAPEQAPEEEIEEEAEEAAPQLPSRSSAAPPPPPRRATPEKKPKENPWATPEYDYDAAEDNELTFVENDKIINIEFVDDDWWLGELEKDGSKGLFPSNYVSLGN [chain 1 A539P], for which the screen value is -2.72.

In the case of chain 1 MALEPIDYTTHSREIDAEYLKIVRGSDPDTTWLIISPNAKKEYEPESTGSSFHDFLQLFDETKVQYGLARVSPPGSDVEKIIIIGWCPDSAPLKTRASFAANFAAVANNLFKGYHVQVTARDEDDLDENELLMKISNAAGARYSIQTSSKQQGKASTPPVKKSFTPSKSPAPVSKKEPVKTPSPAPAAKISSRVNDNNDDDDWNEPELKERDFDQAPLKPNQSSYKPIGKIDLQKVIAEEKAKEDPRLVQKPTAAGSKIDPSSDIANLKNESKLKRDSEFNSFLGTTKPPSMTESSLKNDDDKVIKGFRNEKSPAQLWAERKAKQNSGNAETKAEAPKPEVPEDEPEGEPDVKDLKSKFEGLAASEKEEEEMENKFAPPPKKSEPTIISPKPFSKPQEPVKAEEAEQPKTDYKKIGNPLPGMHIEADNEEEPEENDDDWDDDEDEAAQPPLPSRNVASGAPVQKEEPEQEEIAPSLPSRNSIPAPKQEEAPEQAPEEEIEEEAEEAAPQLPSRSSAAPPPPPRRATPEKKPKENPWATEEYDYDAAEDNELTFVENDKIINIEFVDDDWWLGELEKDGSKGLFPSNYVSLGN [chain 1 A539E], the screen value is -2.3.

Consider chain 1 MALEPIDYTTHSREIDAEYLKIVRGSDPDTTWLIISPNAKKEYEPESTGSSFHDFLQLFDETKVQYGLARVSPPGSDVEKIIIIGWCPDSAPLKTRASFAANFAAVANNLFKGYHVQVTARDEDDLDENELLMKISNAAGARYSIQTSSKQQGKASTPPVKKSFTPSKSPAPVSKKEPVKTPSPAPAAKISSRVNDNNDDDDWNEPELKERDFDQAPLKPNQSSYKPIGKIDLQKVIAEEKAKEDPRLVQKPTAAGSKIDPSSDIANLKNESKLKRDSEFNSFLGTTKPPSMTESSLKNDDDKVIKGFRNEKSPAQLWAERKAKQNSGNAETKAEAPKPEVPEDEPEGEPDVKDLKSKFEGLAASEKEEEEMENKFAPPPKKSEPTIISPKPFSKPQEPVKAEEAEQPKTDYKKIGNPLPGMHIEADNEEEPEENDDDWDDDEDEAAQPPLPSRNVASGAPVQKEEPEQEEIAPSLPSRNSIPAPKQEEAPEQAPEEEIEEEAEEAAPQLPSRSSAAPPPPPRRATPEKKPKENPWATSEYDYDAAEDNELTFVENDKIINIEFVDDDWWLGELEKDGSKGLFPSNYVSLGN [chain 1 A539S], for which the screen value was -1.72.

In the case of chain 1 MALEPIDYTTHSREIDAEYLKIVRGSDPDTTWLIISPNAKKEYEPESTGSSFHDFLQLFDETKVQYGLARVSPPGSDVEKIIIIGWCPDSAPLKTRASFAANFAAVANNLFKGYHVQVTARDEDDLDENELLMKISNAAGARYSIQTSSKQQGKASTPPVKKSFTPSKSPAPVSKKEPVKTPSPAPAAKISSRVNDNNDDDDWNEPELKERDFDQAPLKPNQSSYKPIGKIDLQKVIAEEKAKEDPRLVQKPTAAGSKIDPSSDIANLKNESKLKRDSEFNSFLGTTKPPSMTESSLKNDDDKVIKGFRNEKSPAQLWAERKAKQNSGNAETKAEAPKPEVPEDEPEGEPDVKDLKSKFEGLAASEKEEEEMENKFAPPPKKSEPTIISPKPFSKPQEPVKAEEAEQPKTDYKKIGNPLPGMHIEADNEEEPEENDDDWDDDEDEAAQPPLPSRNVASGAPVQKEEPEQEEIAPSLPSRNSIPAPKQEEAPEQAPEEEIEEEAEEAAPQLPSRSSAAPPPPPRRATPEKKPKENPWATGEYDYDAAEDNELTFVENDKIINIEFVDDDWWLGELEKDGSKGLFPSNYVSLGN [chain 1 A539G], the screen value was -2.8.
